We go through two substances from paper PMC10440729 (Journal of the American Chemical Society, 2022).

For data set [1], the system named is STZ-induced C57BL/6J diabetic mouse model. Description: Blood glucose lowering in STZ-induced diabetic mice. The following applies: 5 IU insulin/kg subcutaneous, blood glucose after 4 hours, n = 3. It counts as in vivo.
Data set [2] can be described thus: DOSY NMR diffusion coefficient / oligomerization state. Format: physicochemical. The note with it: 4 °C, suggests a mixture of dimers and hexamers.
The conditions of data set [3]: reported value, cited from earlier work.

On to “2A-S-Ins: discrete 2A IEG polytriazole (all S) conjugated to N-terminus of insulin chain B by SPAAC”, for which, in data set [1], the “duration of blood glucose response” value was “longer-lasting effects than Lantus”.
For insulin, the “diffusion coefficient (D)” value in data set [2] is on record as ~ 1 × 10^−6 cm^2/s. In addition, in data set [3] (insulin dimers), the “reported D of dimers” value is given as 1.22 × 10^−6 cm^2/s. The “reported D of hexamers” value in data set [3] (insulin hexamers) is 0.87 × 10^−6 cm^2/s.
